B1: Wnt inhibitory factor 1 (Homo sapiens), Q9Y5W5 (parent)
chain: MARRSAFPAAALWLWSILLCLLALRAEAGPPQEESLYLWIDAHQARVLIGFEEDILIVSEGKMAPFTHDFRKAQQRMPAIPVNIHSMNFTWQAAGQAEYFYEFLSLRSLDKGIMADPTVNVPLLGTVPHKASVVQVGFPCLGKQDGVAAFEVDVIVMNSEGNTILQTPQNAIFFKTCQQAECPGGCRNGGFCNERRICECPDGFHGPHCEKALCTPRCMNGGLCVTPGFCICPPGFYGVNCDKANCSTTCFNGGTCFYPGKCICPPGLEGEQCEISKCPQPCRNGGKCIGKSKCKCSKGYQGDLCSKPVCEPGCGAHGTCHEPNKCQCQEGWHGRHCNKRYEASLIHALRPAGAQLRQHTPSLKKAEERRDPPESNYIW
B2: Wnt inhibitory factor 1 (Homo sapiens), Q9Y5W5 (parent)
chain: B1 chain
partner: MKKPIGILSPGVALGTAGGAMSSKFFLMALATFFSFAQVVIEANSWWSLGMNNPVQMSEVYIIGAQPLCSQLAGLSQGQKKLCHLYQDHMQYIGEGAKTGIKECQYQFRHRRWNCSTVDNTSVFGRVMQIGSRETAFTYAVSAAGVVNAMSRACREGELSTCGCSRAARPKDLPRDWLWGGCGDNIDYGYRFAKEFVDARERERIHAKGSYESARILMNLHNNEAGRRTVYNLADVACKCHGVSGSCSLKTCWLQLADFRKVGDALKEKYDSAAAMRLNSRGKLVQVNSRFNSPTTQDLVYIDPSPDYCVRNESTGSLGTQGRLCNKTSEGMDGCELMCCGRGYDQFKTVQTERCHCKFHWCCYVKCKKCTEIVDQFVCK

Variants of: B1
Conditions: with wnt3a_mouse Wnt3a

Row | Variant | effect of a mutation on the interaction
1 | MARRSAFPAAALWLRSILLCLLALRAEAGPPQEESLYLWIDAHQARVLIGFEEDILIVSEGKMAPFTHDFRKAQQRMPAIPVNIHSMNFTWQAAGQAEYFYEFLSLRSLDKGIMADPTVNVPLLGTVPHKASVVQVGFPCLGKQDGVAAFEVDVIVMNSEGNTILQTPQNAIFFKTCQQAECPGGCRNGGFCNERRICECPDGFHGPHCEKALCTPRCMNGGLCVTPGFCICPPGFYGVNCDKANCSTTCFNGGTCFYPGKCICPPGLEGEQCEISKCPQPCRNGGKCIGKSKCKCSKGYQGDLCSKPVCEPGCGAHGTCHEPNKCQCQEGWHGRHCNKRYEASLIHALRPAGAQLRQHTPSLKKAEERRDPPESNYIW [W15R] | decreasing interaction

Variants of: B2
Conditions: with wnt5a_mouse Wnt5a

Row | Variant | effect of a mutation on the interaction
2 | MARRSAFPAAALWLRSILLCLLALRAEAGPPQEESLYLWIDAHQARVLIGFEEDILIVSEGKMAPFTHDFRKAQQRMPAIPVNIHSMNFTWQAAGQAEYFYEFLSLRSLDKGIMADPTVNVPLLGTVPHKASVVQVGFPCLGKQDGVAAFEVDVIVMNSEGNTILQTPQNAIFFKTCQQAECPGGCRNGGFCNERRICECPDGFHGPHCEKALCTPRCMNGGLCVTPGFCICPPGFYGVNCDKANCSTTCFNGGTCFYPGKCICPPGLEGEQCEISKCPQPCRNGGKCIGKSKCKCSKGYQGDLCSKPVCEPGCGAHGTCHEPNKCQCQEGWHGRHCNKRYEASLIHALRPAGAQLRQHTPSLKKAEERRDPPESNYIW [W15R] | increasing interaction
